For assay [1], the target named is SARS-CoV-2 WT RBD (SARS-CoV-2) (UniProt P0DTC2). The assay can be described thus: Octet BLI single point, monovalent.
The target of assay [2] is SARS-CoV-2 wild type spike protein (on reporter virus particles) (SARS-CoV-2) (UniProt P0DTC2). The assay can be described thus: cell-based or functional assay.
The target is the same in assay [3]. The assay can be described thus: cell-based or functional assay. The source holds these as a separate data set.
Assay [4] addresses Bat coronavirus WIV16 spike protein (Bat coronavirus WIV16). The assay can be described thus: cell-based or functional assay.
For assay [5], the target named is SARS-CoV-1 spike protein (SARS-CoV-1) (UniProt P59594). The assay can be described thus: cell-based or functional assay.

Where two headings read alike, the source gives them in different places.

In assay [1], RGN10933 (antibody) returned a Kd of 3.62 nM. Besides, in assay [2], the PsV neutralization IC50 was found to be 0.002 µg/mL and the PsV neutralization IC90 was 0.024 µg/mL. Moreover, in assay [3], the PSV IC50 came to 0.028 µg/mL, the PsV neutralization IC50 came out at 0.0067 µg/mL, the PsV neutralization IC90 came out at 0.081 µg/mL and the SARS2 IC50 was 0.022 nM. Moreover, in assay [3], the WT PsV IC50 was 0.185 nM.
In the case of S309 (antibody), the results for the PsV neutralization IC50 in assay [4], in assay [5] and in assay [2] were 0.016 µg/mL, 0.01 µg/mL and 0.009 µg/mL, respectively. Further, the values for the PsV neutralization IC90 in assay [4], in assay [5] and in assay [2] were 0.305 µg/mL, 0.043 µg/mL and 0.051 µg/mL, respectively. In addition, the WT PsV IC50 in assay [3] was determined as 6.56 nM.
Substance RGN10987 (antibody) registered a Kd in assay [1] of 9.13 nM. Further, in assay [2], the PsV neutralization IC50 amounted to 0.007 µg/mL and the PsV neutralization IC90 was determined as 0.078 µg/mL. In assay [3], this substance showed a PSV IC50 of 0.031 µg/mL and a WT PsV IC50 of 0.292 nM.

These data come from US20260217797A1.
